Patent US20240247080A1, “GLP1/GIP/NPY2 RECEPTOR TRIPLE AGONISTS” (Boehringer Ingelheim International GmbH, priority 2022, published 2024)
Starred links: 1 amine or outer side, 2 acyl side, 3 side chain; linkers in the order of their positions; H or OH if unused. Non-standard residues stand in square brackets, D forms with d. Groups on a side chain read outwards from the residue. No end group written: not given here. *: point of attachment. C20 diacid = O=C(O)CCCCCCCCCCCCCCCCCCC(=O)*; C18 diacid = O=C(O)CCCCCCCCCCCCCCCCC(=O)*; γGlu = O=C(O)[C@H](CCC(=O)[*:2])N[*:1]; εLys = N[C@@H](CCCCN[*:1])C(=O)[*:2]; glu = not defined here; AEEA = NCCOCCOCC(=O)O; Aib = CC(C)(N)C(=O)O

B1: Compound 200 (peptide)
peptide: Y[Aib]EGTFTSDYSI[Aib]LEKQAE[Aib]AFVQWLIK([εLys-γGlu-γGlu-γGlu-γGlu-γGlu-C20 diacid])GGPSEGASLRHYYNWLTRQRY-NH2
modifications: also: TFA salt
B2: Compound 192 (peptide)
peptide: Y[Aib]EGTFTSDYSI[Aib]LEK(Ac)QAQ[Aib]AFVEWLIK([εLys-glu-γGlu-γGlu-γGlu-γGlu-γGlu-C20 diacid])GGPSSGASLRHYYNWLTRQRY-NH2
modifications: reading uncertain; also: TFA salt
B3: Compound 185 (peptide)
peptide: Y[Aib]EGTFTSDYSI[Aib]LEKQAQ[Aib]EFVQWLIK([γGlu-γGlu-γGlu-γGlu-γGlu-γGlu-C20 diacid])GGPSEGASLRHYYNWLTRQRY-NH2
modifications: also: TFA salt
B4: Compound 201 (peptide)
peptide: Y[Aib]EGTFTSDYSI[Aib]LEKQAQ[Aib]EFVEWLIKGGPSSGASLRHYYNWLTRQRY-NH2
modifications: not fully specified (residue 28); also: TFA salt
B5: Compound 199 (peptide)
peptide: Y[Aib]EGTFTSDYSI[Aib]LE[Aib]QAQ[Aib]AFVEWLIKGGPSSGASLRHYYNWLTRQRY-NH2
modifications: not fully specified (residue 28); also: TFA salt
B6: Compound 198 (peptide)
peptide: Y[Aib]EGTFTSDYSI[Aib]LEKQAQ[Aib]EFVEWLIKGGPSSGASLRHYYNWLTRQRY-NH2
modifications: not fully specified (residue 28); also: TFA salt
B7: Compound 188 (peptide)
peptide: Y[Aib]EGTFTSDYSI[Aib]LEKQAQ[Aib]AFVQWLIK([AEEA-AEEA-Glu-Glu-Glu-C18 diacid])GGPEEGASLRHYYNWLTRQRY-NH2
modifications: also: TFA salt
B8: Compound 186 (peptide)
peptide: YXEGTFTSDYSIXLEKQAQXAFVQWLIKGGPSEGASLRHYYNWLTRXRY
modifications: Aib at 2, 13, 20; bHGln (beta-homo-L-glutamine) at 47; K28 side chain carries C20DA-gGlu-gGlu-gGlu-gGlu-gGlu-gGlu-eLys; C-terminal amide
B9: Compound 195 (peptide)
peptide: YXEGTFTSDYSIXLEKQAQXAFVEWLIKGGPSSGASLRHYYNLLTRQRY
modifications: Aib at 2, 13, 20; K28 side chain carries C20DA-gGlu-gGlu-gGlu-gGlu-gGlu-gGlu-eLys; C-terminal amide
B10: Compound 196 (peptide)
peptide: YXEGTFTSDYSIXLEKQAQXAFVQWLIKGGPEEGASLRHYYNWLTRQRY
modifications: Aib at 2, 13, 20; K28 side chain carries C18DA-E-E-E-E-E-E-eLys (SEQ ID NO: 643); C-terminal amide
B11: Compound 197 (peptide)
peptide: YXEGTFTSDYSIXLEKQAQXAFVEWLIKGGPSSGALLRHYYNWLTRQRY
modifications: Aib at 2, 13, 20; K28 side chain carries C20DA-gGlu-gGlu-gGlu-gGlu-gGlu-gGlu-eLys; C-terminal amide
B12: Compound 191 (peptide)
peptide: YXEGTFTSDYSIXLEKQAQXAFVEWLIKGGPSSGASLRHYYNWLTRQRX
modifications: Aib at 2, 13, 20; Tle at 49; K28 side chain carries C20DA-gGlu-gGlu-gGlu-gGlu-gGlu-gGlu-eLys; C-terminal amide
B13: Compound 190 (peptide)
peptide: YXEGTFTSDYSIXLEKQAQXAFVEWLIKGGPSSGASLRHYYNWRTRQRY
modifications: Aib at 2, 13, 20; D-Arg at 44; K28 side chain carries C20DA-gGlu-gGlu-gGlu-gGlu-Glu-gGlu-eLys (so in the source); C-terminal amide
B14: Compound 193 (peptide)
peptide: Y[Aib]EGTFTSDYSI[Aib]LEKQAQ[Aib]AFVQWLIK([AEEA-AEEA-γGlu-γGlu-γGlu-γGlu-C20 diacid])GGPEEGASLRHYYNWLTRQRY-NH2
modifications: also: TFA salt
B15: Compound 194 (peptide)
peptide: Y[Aib]EGTFTSDYSI[Aib]LEKQAQ[Aib]EFVQWLIK([γGlu-γGlu-γGlu-γGlu-C20 diacid])GGPSEGASLRHYYNWLTRQRY-NH2
modifications: also: TFA salt
B16: Compound 189 (peptide)
peptide: Y[Aib]EGTFTSDYSI[Aib]LEKQAQ[Aib]AFVQWLIK([εLys-γGlu-γGlu-γGlu-γGlu-γGlu-C20 diacid])GGPSEYASLRHYYNWLTRQRY-NH2
modifications: also: TFA salt

Columns and labels:
Experiment in all cases: cell-based or functional assay
GIP receptor = biological target: T1, GIP receptor (human (printed as hGIPR), UniProt P48546 22-466)
T1 sequence (looked up): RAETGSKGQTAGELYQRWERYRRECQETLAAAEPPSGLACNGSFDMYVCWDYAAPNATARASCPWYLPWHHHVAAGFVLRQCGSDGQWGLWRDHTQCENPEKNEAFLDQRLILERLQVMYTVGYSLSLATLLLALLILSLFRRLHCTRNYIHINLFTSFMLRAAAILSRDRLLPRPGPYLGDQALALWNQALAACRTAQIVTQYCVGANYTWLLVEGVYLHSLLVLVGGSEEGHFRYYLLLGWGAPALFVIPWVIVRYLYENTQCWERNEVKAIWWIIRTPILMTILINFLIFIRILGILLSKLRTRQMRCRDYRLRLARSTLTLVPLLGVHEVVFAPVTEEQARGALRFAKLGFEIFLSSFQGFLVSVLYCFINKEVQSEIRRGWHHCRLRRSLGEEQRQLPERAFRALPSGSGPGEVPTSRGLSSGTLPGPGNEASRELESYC

NPY2 receptor = biological target: T2, NPY2 receptor (human (printed as hNPY2R), UniProt P49146 1-381)
T2 sequence (looked up): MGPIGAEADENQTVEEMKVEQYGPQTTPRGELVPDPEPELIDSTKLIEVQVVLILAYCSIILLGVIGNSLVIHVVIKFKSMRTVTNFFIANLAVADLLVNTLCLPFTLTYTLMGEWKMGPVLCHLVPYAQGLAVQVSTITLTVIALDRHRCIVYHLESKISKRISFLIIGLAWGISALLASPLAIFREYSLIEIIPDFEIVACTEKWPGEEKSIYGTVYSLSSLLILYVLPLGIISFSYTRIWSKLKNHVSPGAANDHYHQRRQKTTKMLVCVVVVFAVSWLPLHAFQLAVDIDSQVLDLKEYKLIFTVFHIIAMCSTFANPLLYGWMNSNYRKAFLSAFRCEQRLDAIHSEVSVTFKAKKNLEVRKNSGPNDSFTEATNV

GLP-1 receptor = GLP-1 receptor (human (printed as hGLP1R), UniProt P43220 24-463)

Binder	EC50 hGIPR 0.5% hP (CreLuc) (GIP receptor) [nM]	EC50 hGIPR 100% hP (CreLuc) (GIP receptor) [nM]	EC50 hNPY2R 0.5% hP (CreLuc) (NPY2 receptor) [nM]	EC50 hNPY2R 100% hP (CreLuc) (NPY2 receptor) [nM]	EC50 hGLP1R 0.5% hP (CreLuc) (GLP-1 receptor) [nM]	EC50 hGLP1R 100% hP (CreLuc) (GLP-1 receptor) [nM]
B1	0.37	3.56	12.1	64.3	0.48	25.8
B2	0.28	1.95	20.5	128	0.13	2.01
B3	0.33	5.59	13.3	66.8	0.4	11
B4	0.49	1.03	16.3	31	0.28	10.4
B5	0.94	5.5	30	106	1.26	13.8
B6	0.26	5.01	13.1	69.9	0.47	15.8
B7	0.12	1.16	16.9	105	0.15	5.93
B8	0.11	0.77	> 99.9	904	0.11	1.25
B9	0.25	1.42	26.1	137	0.13	1.9
B10	0.25	3.68	25.2	152	0.2	13.6
B11	0.43	3.61	42.6	158	0.31	6.06
B12	0.23	2	> 99.9	> 999	0.17	2.92
B13	0.13	1.18	> 100	> 1000	0.1	1.09
B14	0.5	3.4	13.6	73.3	0.36	20.8
B15	0.2	1.83	13.8	93.7	0.29	14.2
B16	0.31	5.06	8.03	45.8	0.21	10.2
